Broadly, the Km is the concentration of substrate that gives half-maximal velocity.

Substrate in the data set: O=C1OC(c2ccc(O)c(S(=O)(=O)O)c2)(c2ccc(O)c(S(=O)(=O)O)c2)c2c(Br)c(Br)c(Br)c(Br)c21
Briefly: TP_TRANSPORTER: uptake in bile canalicular membrane vesicles from Wistar rat. It counts as functional, cell membranes, Bile canalicular membrane vesicle.

B1: ATP-binding cassette sub-family C member 2 (Rattus norvegicus) (protein)
chain: MDKFCNSTFWDLSLLESPEADLPLCFEQTVLVWIPLGFLWLLAPWQLYSVYRSRTKRSSITKFYLAKQVFVVFLLILAAIDLSLALTEDTGQATVPPVRYTNPILYLCTWLLVLAVQHSRQWCVRKNSWFLSLFWILSVLCGVFQFQTLIRALLKDSKSNMAYSYLFFVSYGFQIVLLILTAFSGPSDSTQTPSVTASFLSSITFSWYDRTVLKGYKHPLTLEDVWDIDEGFKTRSVTSKFEAAMTKDLQKARQAFQRRLQKSQRKPEATLHGLNKKQSQSQDVLVLEEAKKKSEKTTKDYPKSWLIKSLFKTFHVVILKSFILKLIHDLLVFLNPQLLKLLIGFVKSSNSYVWFGYICAILMFAVTLIQSFCLQSYFQHCFVLGMCVRTTVMSSIYKKALTLSNLARKQYTIGETVNLMSVDSQKLMDATNYMQLVWSSVIQITLSIFFLWRELGPSILAGVGVMVLLIPVNGVLATKIRNIQVQNMKNKDKRLKIMNEILSGIKILKYFAWEPSFQEQVQGIRKKELKNLLRFGQLQSLLIFILQITPILVSVVTFSVYVLVDSANVLNAEKAFTSITLFNILRFPLSMLPMVTSSILQASVSVDRLERYLGGDDLDTSAIRRVSNFDKAVKFSEASFTWDPDLEATIQDVNLDIKPGQLVAVVGTVGSGKSSLVSAMLGEMENVHGHITIQGSTAYVPQQSWIQNGTIKDNILFGSEYNEKKYQQVLKACALLPDLEILPGGDMAEIGEKGINLSGGQKQRVSLARAAYQDADIYILDDPLSAVDAHVGKHIFNKVVGPNGLLAGKTRIFVTHGIHFLPQVDEIVVLGKGTILEKGSYRDLLDKKGVFARNWKTFMKHSGPEGEATVNNDSEAEDDDDGLIPTMEEIPEDAASLAMRRENSLRRTLSRSSRSSSRRGKSLKNSLKIKNVNVLKEKEKEVEGQKLIKKEFVETGKVKFSIYLKYLQAVGWWSILFIILFYGLNNVAFIGSNLWLSAWTSDSDNLNGTNNSSSHRDMRIGVFGALGLAQGICLLISTLWSIYACRNASKALHGQLLTNILRAPMRFFDTTPTGRIVNRFSGDISTVDDLLPQTLRSWMMCFFGIAGTLVMICMATPVFAIIIIPLSILYISVQVFYVATSRQLRRLDSVTKSPIYSHFSETVTGLPIIRAFEHQQRFLAWNEKQIDINQKCVFSWITSNRWLAIRLELVGNLVVFCSALLLVIYRKTLTGDVVGFVLSNALNITQTLNWLVRMTSEAETNIVAVERISEYINVENEAPWVTDKRPPADWPRHGEIQFNNYQVRYRPELDLVLKGITCNIKSGEKVGVVGRTGAGKSSLTNCLFRILESAGGQIIIDGIDVASIGLHDLRERLTIIPQDPILFSGSLRMNLDPFNKYSDEEVWRALELAHLRSFVSGLQLGLLSEVTEGGDNLSIGQRQLLCLGRAVLRKSKILVLDEATAAVDLETDSLIQTTIRKEFSQCTVITIAHRLHTIMDSDKIMVLDNGKIVEYGSPEELLSNRGSFYLMAKEAGIENVNHTEL
With B1, the Km came out at 31 µM.
